Measurements published in doi:10.1101/315713 (bioRxiv, 2018).

Biological target: the molecule itself

| Protein | stoichiometry N |
| --- | --- |
| Dipeptidase 3 (DPEP3), native, from testicular tissue and spermatozoa lysates (natural protein, UniProt Q9H4B8 36-463, looked up) AETTPGAPRALSTLGSPSLFTTPGVPSALTTPGLTTPGTPKTLDLRGRAQALMRSFPLVDGHNDLPQVLRQRYKNVLQDVNLRNFSHGQTSLDRLRDGLVGAQFWSASVSCQSQDQTAVRLALEQIDLIHRMCASYSELELVTSAEGLNSSQKLACLIGVEGGHSLDSSLSVLRSFYVLGVRYLTLTFTCSTPWAESSTKFRHHMYTNVSGLTSFGEKVVEELNRLGMMIDLSYASDTLIRRVLEVSQAPVIFSHSAARAVCDNLLNVPDDILQLLKKNGGIVMVTLSMGVLQCNLLANVSTVADHFDHIRAVIGSEFIGIGGNYDGTGRFPQGLEDVSTYPVLIEELLSRSWSEEELQGVLRGNLLRVFRQVEKVREESRAQSPVEAEFPYGQLSTSCHSHLVPQNGHQATHLEVTKQPTNRVPWRS | 2 |
| DPEP3, free soluble native form in seminal plasma (natural protein, human (endogenous in seminal plasma), UniProt Q9H4B8 36-463, looked up) AETTPGAPRALSTLGSPSLFTTPGVPSALTTPGLTTPGTPKTLDLRGRAQALMRSFPLVDGHNDLPQVLRQRYKNVLQDVNLRNFSHGQTSLDRLRDGLVGAQFWSASVSCQSQDQTAVRLALEQIDLIHRMCASYSELELVTSAEGLNSSQKLACLIGVEGGHSLDSSLSVLRSFYVLGVRYLTLTFTCSTPWAESSTKFRHHMYTNVSGLTSFGEKVVEELNRLGMMIDLSYASDTLIRRVLEVSQAPVIFSHSAARAVCDNLLNVPDDILQLLKKNGGIVMVTLSMGVLQCNLLANVSTVADHFDHIRAVIGSEFIGIGGNYDGTGRFPQGLEDVSTYPVLIEELLSRSWSEEELQGVLRGNLLRVFRQVEKVREESRAQSPVEAEFPYGQLSTSCHSHLVPQNGHQATHLEVTKQPTNRVPWRS | 2 |
